{"source": "paper PMC4423116", "about": "“Tarantula toxins use common surfaces for interacting with Kv and ASIC ion channels” (eLife, 2015)", "key": {"[1]": {"settings": "analysis of quenching profiles with brominated lipids; ref Phillips et al., 2005; Swartz, 2007; Jung et al., 2010; Mihailescu et al., 2014; cited from earlier work", "description": "The results thus far reveal that both classes of tarantula toxins interact quite favorably with lipid membranes. […] For example, the solvent accessible surface area for the hydrophobic surface of PcTx1 is 380 Å^2, which compares with a value of 703 Å^2 for GxTx-1E. In addition, the hydrophobic surfaces on the two toxins are situated on distinct surfaces (Figure 1D,E). These differences between PcTx1 an ..."}, "Kv2.1 channel": {"molecular_target": "T1, Kv2.1 channel (Rattus norvegicus, UniProt P15387)", "T1 construct": "expressed in transfected cells; host or cells: Xenopus laevis oocytes, cRNA injection", "T1 sequence (P15387 1-857)": "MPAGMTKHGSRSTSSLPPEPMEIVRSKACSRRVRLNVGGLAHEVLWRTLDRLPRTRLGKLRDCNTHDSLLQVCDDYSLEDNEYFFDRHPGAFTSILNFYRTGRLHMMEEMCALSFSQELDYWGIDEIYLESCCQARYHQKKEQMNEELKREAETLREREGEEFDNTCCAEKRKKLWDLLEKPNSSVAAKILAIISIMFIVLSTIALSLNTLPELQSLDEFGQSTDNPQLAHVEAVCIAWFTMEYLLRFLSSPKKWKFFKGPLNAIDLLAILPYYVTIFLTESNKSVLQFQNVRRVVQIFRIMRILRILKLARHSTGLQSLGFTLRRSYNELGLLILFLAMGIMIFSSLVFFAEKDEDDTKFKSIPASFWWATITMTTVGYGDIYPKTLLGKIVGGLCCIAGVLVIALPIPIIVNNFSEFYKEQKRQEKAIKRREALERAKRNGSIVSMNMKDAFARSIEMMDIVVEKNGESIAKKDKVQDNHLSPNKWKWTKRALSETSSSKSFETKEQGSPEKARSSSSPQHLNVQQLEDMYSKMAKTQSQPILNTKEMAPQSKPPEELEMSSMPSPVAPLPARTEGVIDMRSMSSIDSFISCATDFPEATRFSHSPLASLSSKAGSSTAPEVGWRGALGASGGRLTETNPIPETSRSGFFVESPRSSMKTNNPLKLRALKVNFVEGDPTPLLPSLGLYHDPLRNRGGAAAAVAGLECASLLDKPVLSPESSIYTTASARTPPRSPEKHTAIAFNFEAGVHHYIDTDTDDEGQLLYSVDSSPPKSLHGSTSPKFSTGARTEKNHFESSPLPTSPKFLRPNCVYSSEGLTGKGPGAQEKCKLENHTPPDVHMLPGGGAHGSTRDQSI", "test": "Inhibition of Kv2.1 channel currents in Xenopus oocytes (two-electrode voltage clamp), apparent affinity", "type": "cell-based"}, "[2]": {"test": "Membrane partitioning into lipid vesicles detected with intrinsic Trp fluorescence (blue shift)", "type": "physicochemical", "settings": "lipid vesicles POPC:POPG 1:1", "procedure": "Large unilamellar vesicles (LUVs) were prepared by drying the phospholipids from a chloroform solution under a nitrogen stream. The dried lipid film was rehydrated in buffer containing 10 mM HEPES, 1 mM EDTA, pH 7.6 (HEB). The resulting dispersions were extruded through 100 nm pore size polycarbonate filters (Millipore Corp.) till the solution became clear. All fluorescence measurements were performed in quartz cuvettes with 1 cm path length. Fluorescence spectra (averaging three spectra) were recorded between 300 and 450 nm (5 nm band pass, 0° polarizer) using an excitation wavelength of 280 nm (5 nm band pass, 90° polarizer) (SPEX FluoroMax 3 spectrofluorometer) and corrected for vesicle scattering. […] Mole-fraction partitioning coefficients (Kx) were calculated by measuring the fluorescence intensity (F) at 320 nm and normalizing to the zero lipid fluorescence intensity (F0) ([Ladokhin et al., 2000]; [Milescu et al., 2007]). Kx was calculated based on the best fits of the following equation to the data: F/F0(L) = 1 + (F/F0^max − 1)Kx[L]/([W] + Kx[L]), where F/F0(L) is the change in fluorescence intensity for a given concentration of lipid, F/F0^max is the maximum fluorescence increase at high lipid concentrations, [L] is the average available lipid concentration (60% of total lipid concentration) and [W] is the molar concentration of water (55.3 M)."}, "[3]": {"test": "Acrylamide quenching of Trp fluorescence (Stern-Volmer), protection by lipid vesicles", "type": "physicochemical", "settings": "n = 3", "procedure": "(§1) Protection of tryptophan fluorescence from acrylamide quenching was examined in the absence and presence of lipids (toxin: lipid = 1:500) by titration with increasing concentrations of acrylamide ([Milescu et al., 2007]). The Stern–Volmer quenching constant (KSV) was calculated based on the best fits of the following equation to the data: F0/F = 1 + KSV[Q], where F0 and F are fluorescence of the toxin in the absence and presence of acrylamide, and [Q] is the concentration of acrylamide. […] A solution containing ∼ 2 µM toxin and 0.3 M acrylamide was stirred continuously with addition of increasing concentrations of LUVs composed of 1:1 mixture of POPC and POPG. Fluorescence spectra (averaging three spectra) were recorded between 300 and 450 nm (5 nm band pass, 0° polarizer) using an excitation wavelength of 280 nm (5 nm band pass, 90° polarizer) (SPEX FluoroMax 3 spectrofluorometer) and corrected for vesicle scattering. For calculating mole–fraction partitioning coefficients (Kdx), the maximal fluorescence intensity (F at λmax) was measured and normalized to the zero lipid fluorescence intensity (F0). […]"}, "[4]": {"test": "Acrylamide dequenching by lipid vesicles (quenching-enhanced fluorescence titration)", "type": "physicochemical", "settings": "LUVs POPC:POPG 1:1", "procedure": "as §1"}, "[5]": {"test": "Depth-dependent quenching of Trp fluorescence by brominated (diBr) phosphatidylcholines", "type": "physicochemical", "settings": "6,7-, 9,10- or 11,12-diBr PC : POPG 1:1 vesicles, 1.2 mM lipid", "procedure": "For depth-dependent fluorescence quenching experiments with brominated lipids, LUVs contained a 1:1 molar ratio of POPG and POPC 6,7-, 9,10-, or 11,12-1-palmitoyl-2-stearoyl(dibromo)-sn-glycero-3-phosphocholine (diBr; Avanti Polar Lipids, Alabaster, AL). Fluorescence spectra were recorded between 300 and 450 nm using an excitation wavelength of 280 nm, corrected for vesicle scattering and normalized to the zero lipid fluorescence intensity."}, "Kv2.1-ASIC1a chimeras": {"tested_on": "Kv2.1-ASIC1a chimeras", "test": "Effect of PcTx1 on G-V relations of Kv2.1-ASIC1a chimeras in oocytes", "type": "cell-based", "settings": "5 µM PcTx1, extracellular application, external 50 mM KCl, n = 3", "description": "Chimeras were generated using sequential PCR with the Kv2.1∆7 channel ([Li-Smerin and Swartz, 1998]) as template. Primers encoding the 9-amino acid sequence of helix-5 from ASIC1a were utilized for overlap PCR. The DNA sequence of all constructs and mutants was confirmed by automated DNA sequencing. Complementary RNA (cRNA) was synthesized using T7 polymerase (mMessage mMachine kit; Ambion) after linearizing the DNA with appropriate restriction enzymes.\nOocytes from Xenopus laevis were removed surgically and incubated with agitation for 1 hr in a solution containing (in mM) 82.5 NaCl, 2.5 KCl, 1 MgCl2, 5 HEPES, pH 7.6 (with NaOH), and collagenase (2 mg/ml; Worthington Biochemical). Defolliculated oocytes were injected with cRNA encoding the Kv2.1 channel constructs and incubated at 17°C in a solution containing (in mM) 96 NaCl, 2 KCl, 1 MgCl2, 1.8 CaCl2, 5 HEPES, pH 7.6 with NaOH, and gentamicin (50 μg/ml, GIBCO-BRL), for 16–72 hr before electrophysiological recording. Oocyte membrane voltage was controlled using an OC-725C oocyte clamp (Warner Instruments). Data were filtered at 1 kHz and digitized at 10 kHz. Microelectrode resistances were 0.1–1 MΩ when filled with 3 M KCl. […] All experiments were performed at room temperature (∼22°C). Voltage-activations relationships in the absence and presence of different concentrations of the synthesized toxin were recorded. […]"}, "ASIC1a": {"tested_on": "ASIC1a", "settings": "ref Chen et al., 2006; Dawson et al., 2012; cited from earlier work", "description": "PcTx1 also contains an Arg finger motif composed of R26, R27 and R28 that is required for […] of ASIC through interactions with channel residues situated in a crevice between subunits. In the case of voltage-sensor toxins such as hanatoxin and GxTx-1E, the S3b helix within the voltage-sensing domains of Kv channels co ..."}}, "data": [{"compound": "hanatoxin", "values": [{"measurement": "position of Trp residues from the center of the bilayer", "setting": "[1]", "result": "8–9 Å"}]}, {"compound": "CC(C)C[C@@H]1NC(=O)CNC(=O)[C@H](Cc2c[nH]c3ccccc23)NC(=O)[C@H](CCCCN)NC(=O)[C@@H]2CCCN2C(=O)[C@H](CO)NC(=O)[C@@H]2CSSC[C@@H]3NC(=O)[C@H](CCCCN)NC(=O)[C@H](Cc4c[nH]c5ccccc45)NC(=O)[C@H](Cc4c[nH]c5ccccc45)NC(=O)[C@H](Cc4ccccc4)NC(=O)CNC(=O)CNC(=O)[C@@H](NC(=O)[C@H](CCC(=O)O)NC(=O)CNC(=O)[C@@H](N)CCC(=O)O)CSSC[C@H](NC(=O)[C@H](CSSC[C@@H](C(=O)N[C@@H](CC(N)=O)C(=O)N[C@@H](Cc4ccccc4)C(=O)N4CCC[C@H]4C(=O)N[C@@H](C)C(=O)N4CCC[C@H]4C(=O)O)NC1=O)NC(=O)[C@H](C)NC(=O)[C@@H]1CCCN1C(=O)[C@H](CCCCN)NC(=O)CNC(=O)[C@H](CO)NC(=O)CNC3=O)C(=O)N1CCC[C@H]1C(=O)N[C@@H](CCCCN)C(=O)N[C@@H](Cc1ccc(O)cc1)C(=O)N[C@@H](C(C)C)C(=O)N2", "note": "[Nle35A]", "values": [{"measurement": "∆∆G (perturbation energy)", "setting": "Kv2.1 channel; from apparent Kd of mutant vs GxTx-1E(Nle), Kv2.1 in oocytes", "result": 0.19, "unit": "kcal/mol"}]}, {"compound": "PcTx1", "values": [{"measurement": "effect on the Kv2.1 channel (G-V relation)", "setting": "Kv2.1 channel; 5 µM PcTx1, oocytes, external solution 50 mM KCl, tail currents, n = 3", "result": "no effect"}, {"measurement": "maximal blue shift of Trp emission spectrum upon addition of lipid vesicles", "setting": "[2]", "result": "~2", "unit": "nm"}, {"measurement": "Ksv (Stern–Volmer constant), acrylamide quenching in aqueous solution", "setting": "[3]; toxin ∼2 µM in solution, no lipid", "result": 29.2, "unit": "M⁻¹"}, {"measurement": "Ksv (Stern–Volmer constant), acrylamide quenching in presence of lipid vesicles", "setting": "[3]; toxin ∼2 µM with 1.0 mM POPC:POPG 1:1 vesicles (toxin:lipid 1:500)", "result": 11.2, "unit": "M⁻¹"}, {"measurement": "Kdx (mole-fraction partitioning coefficient from acrylamide dequenching)", "setting": "[4]; maximal fluorescence intensity vs available lipid, ∼2 µM toxin, acrylamide 0.2 M / 0.3 M (methods), mean ± SEM (n = 3)", "result": "(4.3 ± 0.6) × 10^6"}, {"measurement": "F/F0^max (dequenching function fit)", "setting": "[4]; maximum fluorescence increase at highest lipid concentration, acrylamide present", "result": "2.7 ± 0.08"}, {"measurement": "quenching of Trp fluorescence by brominated lipids (in words)", "setting": "[5]", "result": "very weak quenching"}, {"measurement": "effect on activity of five Kv2.1-ASIC1a chimeras (G-V relations)", "setting": "Kv2.1-ASIC1a chimeras", "result": "no discernible effect"}, {"measurement": "affinity for ASIC1a (in words)", "setting": "ASIC1a", "result": "nM affinity"}]}]}
